Experimental data: the nanobody polyreactivity screen of Harvey et al. (2022)

Assay: yeast display, Sf9 membrane polyspecificity reagent, FACS + sequencing; frameworks hold sequencing errors
Procedure, shortened: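 Polyreactivity labels are assigned by the sorting gate from which each nanobody was recovered. The gates were low and high (top ~1%), set on anti-HA fluorescence for expression and streptavidin fluorescence for reagent binding. Before sorting, galactose-induced (36–48 hours) yeast display cells were stained for 1 hour at 4 °C with 10% biotinylated, detergent-solubilized Sf9 membrane reagent.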

| Sequence | polyreactivity (PSR sort gate) |
| --- | --- |
| QLQLVESGGGLVQAGGSLRLSCAASGITFVHNAMGWYRQAPGKEREFVAAITSSGVSTYYADSVKVRFTISRDNAKNTVYLQMNSLKPEDTAVYYCAARLSTRHWFYYWGQGTQVTVSS | high polyreactivity |
| QVQLVESGGGLVQAGGSLRLSCAASGSSFFSNAMGWYRQAPGKERELVASIRSGTRTNYADSVKGRFTISRDNAKNTVYLLMNILKPADTAVYYCAKKWGLDKHRIGHRRLDYWGQGTQVTVSS | low polyreactivity |
| QVQLVESGGGLVQAGGSLRLSCAASGSTFRQYAMGWYRQAPGKERELVAAISSGGRTNYADSVKGRFTISRDNAKNTVYLQMNSLKPEDTAVYYCASDIRRRVPVRGYYYWGQGTQVTVSS | high polyreactivity |
| QVQLVESGGGLVQAGGSLRLSCAASGGIFWSYAMGWYRQAPGKERELVAAISSGTYYADSVKGRFTISRDNAKNTVYLQMNSLIPEDTAVYYWNVQTYNVAWFYRYDMNYWGQGPQVTVSS | low polyreactivity |
| QVQLVESGGGLVQAGGSLRLSCAASGSIFYSYAMGWYRQAPGKERELVADITWYGGRTYYADSVKGRFTISRDNAKNTVYLQMNSLKPEDTAVYYCAADVYLYDYWGQGTQVTISS | high polyreactivity |
| QVQLVESGGGLVQAGGSLRLSCAASGSIFQSNAMGWYRQAPGKEREFVAAITASGGRTYYADSVKGRFTISRDNAKNTDYLLMNSLKPEDTAVYFCAARGRYYWGGRSYDYWGHGTQVTVSS | high polyreactivity |
| QVQLVESGGGLVQAGGSLRLSCAASGSTFRFYAMGWYRQAPGKERELVAAITWRSGRTSYADSVKGRFTISRDNAKNTVYLQMNSLKPDDTAVYYCAATSVYRYDYWGQGTLVTVSS | high polyreactivity |
| QVQLVESGGGLVEAGGSLRLSCAASGRTFQYYPMGWYRQAPGKERDFVAAITRTGARTYYADSVKGRFTISRDNAKNTVYLQMYSLKPEDTAVYYCAISLTFYSWRDYGYWGQGSQVTVSS | high polyreactivity |
| QVQLVESGGGLVQAGGSLRLTCAASGSIFYVNAMGWYRQAPGKERESVAGITGSGSRTYYADSVKGRFTISRDNAKNTVYLQMNSLKPEDTAVYYCARLTRTSRGLYDYWGQGTQVTVSS | high polyreactivity |
| QVQLVESGRGLVQAGGSLRLSCAASGSTFRYNAMGWYRQAPGKERELVAAINRGGGTDYADSVKGRFTISRDNAKNTDYLQMNSLKPEDTAVYYCAKQFVSYNRWLAYGYWGQGTQVTVSS | low polyreactivity |
| QVQLVDSGGGLVQAGGSLRLSCAASGFTFVYNVMGWNIQAPGKERELVAAINAGGGSTYYADSVKGRFTISRDNAKNTVYLQMNSLKPEDTAVYYGNARVRVRVGRNWSSYYYWGQGTQVTVSS | high polyreactivity |
| QVQHVESRRGLVQAGGSLRLSCAASGFTFYSYAMGWYRQAPGKEREFVAAGSTYYADSVKGRFTISRDNAKNTDYLQMNSLKPEDTAVYYCATDPIGGWTRPQRYGDDYWGQGTQVTVSS | low polyreactivity |
| QVQLVESGGGLVQAGGSLRLSCAASGFTIRWYAMGWYRQAPGKERELVAAISSGGGSTYYADSVKGRFTISRDNAKNTVYLQMNSLKPEDTAVYYCNARIQYFEYRGYEYWGQGTQVTVSS | high polyreactivity |
| QVQLVESGGGLVQAGGSLRLSCAASGFTFKRYAMGWYRQAPGKERELVAAITGSGGSTYYADSVKGRFTISRDNAKNTVYLQMNSLKPEDTAVYYCAKKRIYWSGRPTIGTYIMGYWGQGTQVTVSS | high polyreactivity |
| QVQLVESGVGLVQAGGSLRLSCAASGRIFDGYDMGWYRQAPGKERELVAAITSVGSTNYADSVKGRFTISRDNAKNTVYLQMNSLKPEDTAVYYCAAVLYVFYDEYGYWEYFSQYDYWGQGTQVTVSS | low polyreactivity |
| QVQLVESGGGLVQAGGSLRLSCAASGRIFFGNTMGWSRQAPGKERELVAVIDRSGGTTYYADSVKGRFTSSRDNAKNTVYLQMNSLKPEDTAVYYCAAIRRQKGLWDYYYWGQGTQVTVST | low polyreactivity |
| QVQLVESGGGLVQAGGSLRLSCAASGRTFYGYAMGWYRQAPGKERELVAAISKTGGSTYYADSVKGRFTISRDNAKNTVYLQMNSLKPEDTAVYYCNARRIYRLEYDSWGQGTQVTVSS | high polyreactivity |
| QVQLVESGGGLVQAGGSLRLSCAASGSTFIRYVMGWYRQAPGKERELVASITISVGSTYADSVKGRFTISRDNAKHTVYLQMNSLKPEDTAVYYCNARYVENTPYPYDYWGQGTQVTVSS | low polyreactivity |
| QVHLVESGGGLVQAGGSLRLSCAASGRIFAGYAMGWYRQAPGKERELVATITRGGSTNYADSVKRPFTISRDNAKNTVYLQMNSLKPEDTAVYYCADVTWYEEYDSWGQGTQVTVSS | low polyreactivity |
| QVQLVESGGGLVQAGGSLRLSCAASGSIFRFYAMGWYRQAPGQERELVAAITSGGSTNYADSVKGRFTISRDNAKNTVYLQMNSLKPEDTAVYYCAAVLVYFFIYDYWGQGTQVTVSS | low polyreactivity |
| QVQLVESGGGLVQAGGSLRLSCAASGSTFYSYAMGWYRQAPGKERELVAAISSSSGSTYYADSVKGRFTISRDNAKNTVYLQMNSLKPEDTAVYYCNRGRRYSHKYDYWGQGTQVTVSS | high polyreactivity |
| QVQLVESGGGLVQAGGSLRLICAASGSTFSYYAMGWYRQAPGKEMELVAAITSGSSTNYADSVKGRFTISRDNAKNTVYLQMNSLKPEDTAVYYCAASPQPKTYRRRYYYWGQGTQVTVSS | high polyreactivity |

| Sequence | polyreactivity (PSR sort gate) |
| --- | --- |
| QVQLVESGGCLVQAGGSLRLSCAASGRIFAWYAMGWYRQAPGKERELVAAISDSGGSTYYADSVKGRFTISRDNAKNTVYLQMNSLKQEDTAVYYCAADQVVYSAYWSDHYDYWGQGTQVTVSS | low polyreactivity |
| QVQLVDSVGGLVQAGGSLRLSCAASGSIFGYYAMAWYRQAPGKERELFASITRSGDTTYYADSVKGRFTISRDNANNTVFLQMNSLKQEDTAVSYCAARRWRWYYDGFVRMDYWGQGTQVTVSS | high polyreactivity |
| QVQLVESGGGLVQAGGSLRLSCAAAGSTFHRYVMGWYRQAPGQERELVAVINSTGGSTYYADSVKGRFTISRDNAKNTVYLQMKCLKPEDTAVYYCARVTRRGPGYSTLFSRYDYWGQGTQVTVSS | low polyreactivity |
| QVQLVESGGGLVQAGGSLRLSCAASGRIFKWYAMGWYRQAPGKERELVAAISRSGGTTYYADSVKGRFTISRDNAKNTVYLQMNSLKPEDTAVYYCATRNIYFSSVDYWGQGTQVTVSS | high polyreactivity |
| QDQLVESGGGLVQAGGSLRLSCAASGSTLVKYAMGWYRQAPGKERELVARITLNGGRTYYADSVKGRFTISRDNAKNTVYLQMNSLKPVDTAVYYCAKSLPHSTSRDYWGQGTQVTLSS | low polyreactivity |
| QVQLVESGGGLDQAGGSLRLSCAASGRIFSYYTMGWYRQAPGKERELVAAITWGGGSTSYADSVKGRFTISRDNAKNTVYLQMNSLKPEDTAVYYCAESPGANRMDYWGQGTQVTVSS | low polyreactivity |
| HVQLVESGGGLVQAGGSLRISCAASGRTFGHYAMGWNRQAPGKQRELVAVISGRNGDSTYYADSVKGRFTISRDNAKNTVYLQMNSLKPVYTAVYYCAAYKPWEYDYWGQGTEVTVSS | low polyreactivity |
| QVQLVESGGGLVQAGGSLRLSCAASGFTFPRYAMGWYRQAPGKERELVAAIRRRGGSTYYADSVKGRFTISRDNAKNTVYLQMNSLKPEDTAVYYCATYNGVKGEASFDYWGQGTQVTVSS | high polyreactivity |
| QVQLVESGGGLVQAGGSLRLSCAASGRTFYVYAMGWYRQAPGKERELVAAISADGGRTYYADSVKGRFTISRDNAKNTVYLQMNSLKPEDTAVYYCAAWRHTLGDYWGQGTQVNVSS | high polyreactivity |
| QVQLVESGGGLVQAGGSLRLSCAASGRTFKSYAMGWYRQAPGKERELVAAISKRGGSTYYADSVKGRFTISRDNAKNTVYLQMNSLKPADTAVYYCNKLYLKPGRYYYWGQGTQVTVSS | high polyreactivity |
| QVQLVESGGGLVQAGGSLRLSCAASGFISKYYAMGWYRQAPGKERELVASISRDGSTSYADSVKGRFTISRDNAKNTVYLQMNSLKPEDTAVYYCAAPSYRTRYYYWGQGTQVTVSS | high polyreactivity |
| QVQLEESGGGLVQAGGSLRLSCAASGRTFNKNAMGWYRQAPGKERELVAAISYSGGRTYYADSVKGRFTISRDNAKNTVYLQMNSLKPEDTAVYYCAAWGSSYSFDYWGQGTQVTVSS | high polyreactivity |
| QVQLVESGGGLVQAGGSLRLICAASGGIFWYNAMGWYRPAPGKERELVADISSSGITYYADSVKGRFTISRDNAKNTVYLQMNSLKPEDTAVYYCAADSTTRPGLRVYDDYDYWGQGTQLTVSS | low polyreactivity |
| QVQLVESGGGLVQAGGSLRLSCAASGRIFWAYAMGWYRQAPGKERELVAVITIGGRTNYADSVKGRFTISRDNAKNTVYLQMNSLKPEDTAVYYCAAERHIITWPYSRYYYWGQGTQVTVSS | high polyreactivity |
| QVQLVESGGGLVQAGGSLRLSCAASGFIFVGNAMGGYRQAPGKERELVAAITSTDNTTYADSVKGRFTISRDNAKNTVYLQMNSLKPEDTAVYYCNARGYPYLYGYDYWGQGTQVTVSS | low polyreactivity |
| QVQHVESGGCLVQAGGSLRLSCAASGSIFSYYDMGWYRHAPGKERELVAAIRGSGGITYADSVKGRFTISRDNAKNTVYLQMNSLKPEETAVYYCAADQYYRSDYYYWGQGTQVTVSS | low polyreactivity |
| QVQLVESGGGLVQAGGSLRLSCAASGITFYRYVMGWYRQAPGKERELVAAISDSTGSTYYADSVKGRFTISRDNAKNTVYLQMNSLKPEDTAVYYCAAGWFYATYWRFYYWGQGTQVTVSS | low polyreactivity |
| QVQLVETAGGLVKAGCSLRLSCAASGRIFYIYAMAWYRQSPGKESELLAAISTGGGGTYYADSVKGRFTISRDNAKNTVYLQMNSLKPEDTAVYYCAATSPLSLDEDYWGQGTQVTVSS | high polyreactivity |
| QDQLVESGGGLVQAGASLRLSCAASGFTFHNKFKGWYRQAPGKERELVATISKSGGSTYYADSVKGRFTISRDYAKNTVNLQMNSLKPEDTAVYYCARRYRDYGRYGYWGQGTQVTVSS | high polyreactivity |
| QVQLVESGGGLVQAGGSLRLSCAASGSIFFIYAIGWYRQAPGKQRELVATISSGGSTYYADSVKGRFRISRDIAKNTVYLQMNSLKPEDTAVYYCAADGIVQDGLEWEYDYWGQGTQVTVSS | low polyreactivity |
| QVQLVASGGRLVQAGGSLRLSCASSGSIFGWYAMGWYRQAPGKERELVAVITSGGSTYYADSVKGRFTISRDNAKNTVYLQMNSLKPVDTAVYYCNARYHAGYKGYNYWGQGTQVTVSS | high polyreactivity |
